This is an account of results in patent US20240043567A1 (published 2024).

For this assay, the target named is QP3732 (Her2M2-Fc). The experiment in a line: ELISA. Background: ELISA stands for enzyme-linked immunosorbent assay.

B1: pertuzumab (antibody, V domains shown)
VH: EVQLVESGGGLVQPGGSLRLSCAASGFTFTDYTMDWVRQAPGKGLEWVADVNPNSGGSIYNQRFKGRFTLSVDRSKNTLYLQMNSLRAEDTAVYYCARNLGPSFYFDYWGQGTLVTVSS
VL: DIQMTQSPSSLSASVGDRVTITCKASQDVSIGVAWYQQKPGKAPKLLIYSASYRYTGVPSRFSGSGSGTDFTLTISSLQPEDFATYYCQQYYIYPYTFGQGTKVEIK
B1: a half-maximal response (EC50) required 0.0307 mg/L.
